Measured values reported in patent US20190336589A1, “IMMUNIZING PEPTIDE, METHOD FOR PRODUCING IMMUNIZING PEPTIDE, PHARMACEUTICAL COMPOSITION FOR IMMUNE DISEASE CONTAINING SAME, AND METHOD FOR TREATING IMMUNE DISEASE” (OSAKA UNIVERSITY, priority 2015, published 2019).

Key:
[1] = target: T1, 3A9 TCR / complex of HEL antigen and I-A^k on LK35.2 cells (Mus musculus, UniProt P01910+P06343); assay: Inhibition of TCR recognition by antibody: binding of soluble single-chain 3A9 TCR to antigen-pulsed LK35.2 cells after reaction with serum; details: cells reacted with serums of HEL-immunized mice, diluted 10-fold
T1 construct: LK35.2 cells expressing I-A^k (the MHC class II molecule); endogenous in cells; host or cells: LK35.2 cells (I-A^k); the 3A9 scTCR-Fc is culture supernatant of transfected 293T cells
T1 sequence (P01910 24-256): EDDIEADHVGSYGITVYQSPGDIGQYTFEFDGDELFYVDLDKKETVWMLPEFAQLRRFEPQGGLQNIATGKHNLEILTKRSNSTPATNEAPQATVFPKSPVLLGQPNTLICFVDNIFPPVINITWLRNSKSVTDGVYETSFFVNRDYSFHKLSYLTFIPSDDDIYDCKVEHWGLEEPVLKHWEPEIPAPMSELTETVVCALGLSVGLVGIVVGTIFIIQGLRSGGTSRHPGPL
T1 sequence (P06343 28-263): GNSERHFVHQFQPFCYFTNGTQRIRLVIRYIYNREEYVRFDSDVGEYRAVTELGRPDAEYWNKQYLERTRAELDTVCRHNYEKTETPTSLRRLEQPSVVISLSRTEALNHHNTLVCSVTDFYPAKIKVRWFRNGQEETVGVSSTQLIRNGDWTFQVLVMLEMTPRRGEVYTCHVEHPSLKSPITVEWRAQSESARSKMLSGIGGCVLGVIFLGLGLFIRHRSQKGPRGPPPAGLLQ
Source text: From 3A9 T cell hybridomas (obtained from Laboratory of Vaccine Materials, National Institutes of Biomedical Innovation) expressing a TCR that recognizes a complex of a peptide consisting of the amino acid sequence of SEQ ID NO: 1 (the T-cell epitope) and I-A^k (the MHC class II molecule), the TCR was cloned. Specifically, from cDNA derived from the 3A9 T cell hybridomas, a polynucleotide encoding the following α-chain and β-chain of 3A9 TCR linked by a GGGGS linker was cloned into a pME18S vector. Thus, a 3A9 TCR expression vector was produced. The vector was designed so that the Fc domain of human IgG is added to the C terminus of an expressed protein. Thus, by introducing the expression vector to a host, a soluble single-chain TCR composed of 3A9 TCR and Fc bound thereto is expressed (3A9 scTCR-Fc).
Next, the 293 T cells were cultured for 96 hours under the same 30 culture conditions as in the item (1) in Example 1A, except that the 3A9 TCR expression vector was introduced instead of the I-A^k c expression vector and the I-A^k f expression vector. After the culture, the supernatant was collected, and the collected supernatant was used as the soluble single-chain TCR.
LK35.2 cells expressing I-A^k (the MHC class II molecule) were seeded in a 24-well plate at a density of 1×10^5 cells/1 ml/well. Next, the HEL protein was added to the wells at a concentration of 200 μg/ml, or the HEL peptide 41-70 or the HEL peptide 48-61 was added to the wells at a concentration of 20 μmol/l. The LK35.2 cells were pulsed with the HEL protein or the HEL peptide by culturing the HEL protein-added group for another 48 hours and the HEL peptide added groups for another 24 hours under the above-described culture conditions. The cultured LK35.2 cells were collected from the wells. Thereafter, the collected LK35.2 cells were used in inhibition of TCR recognition by an antibody to be described below.
Serum collected from each of the HEL protein-immunized mice was diluted 10-fold with HBSS to obtain a diluted serum. Next, 10 μl of the diluted serum was added to the LK35.2 cells obtained in the above item (2) to cause a reaction. Further, a dimer of 20 μl of the supernatant obtained in the above item (1) and 10 μl of an APC-labeled anti-human IgG Fc antibody (code number: 109-136-098, Jackson ImmunoResearch) diluted 100-fold was formed beforehand, and the LK35.2 cells after the reaction were reacted with the dimer. Then, the LK35.2 cells were analyzed by flow cytometry. As Control 1, the flow cytometry analysis was performed in the same manner, except that serums collected from non-immunized mice were used instead of the serums of the HEL protein-immunized mice. […]

[2] = target: T2, complex of HEL peptide and MHC class II molecule (I-A^k) on LK35.2 cells (Mus musculus, UniProt P01910+P06343); assay: Immunization of mice with HEL peptides; serum IgG1 binding to HEL peptide-pulsed LK35.2 cells (flow cytometry); assay type: in vivo, mice (B10.A strain); details: 30 nmol peptide with CFA subcutaneously; serum two weeks after administration
T2 construct: LK35.2 cells expressing I-A^k (the MHC class II molecule); endogenous in cells; host or cells: LK35.2 cells
T2 sequence (P01910 24-256): as the sequence (P01910 24-256) above
T2 sequence (P06343 28-263): as the sequence (P06343 28-263) above
Protocol: (§1) 30 nmol of the HEL peptide 41-70 or the HEL peptide 48-61 was mixed with a complete Freund's adjuvant. Each of the thus-obtained mixture was administered subcutaneously to mice (B10.A strain). Two weeks after the administration, whole blood was collected from each mouse, and serum was collected from the whole blood.
LK35.2 cells were pulsed with the HEL peptide in the same manner as in the item (2) in Example 1B, except that the HEL peptide 41-70 or the HEL peptide 48-61 was added instead of the HEL protein, the HEL peptide 41-70, and the HEL peptide 48-61. The cultured LK35.2 cells were collected from the wells. Thereafter, the collected LK35.2 cells were used in antibody detection to be described below.
Flow cytometry analysis was performed in the same manner as in the item (3) in Example 1A, except that the LK35.2 cells in the item (2) in Example 2A were used instead of the 293 T cells and that an Alexa®647-labeled anti-mouse IgG1 antibody (catalog number: A21240, Invitrogen) was used instead of the APC-labeled anti-mouse IgG (H+L) antibody (peptide added groups). As Control 1, the flow cytometry analysis was performed in the same manner, except that serums collected from non-immunized mice were used instead of the serums of the HEL peptide-immunized mice. As Control 2, the flow cytometry analysis was performed in the same manner, except that the HEL peptide was not added (peptide non-added groups).

[3] = target: T1, 3A9 TCR / complex of HEL antigen and I-A^k on LK35.2 cells; assay: Immunization of mice with HEL protein or HEL peptides; serum inhibition of soluble single-chain 3A9 TCR binding to HEL protein-pulsed LK35.2 cells; assay type: in vivo, mice (B10.A strain); details: immunogen with CFA subcutaneously; serum two weeks after administration
Protocol: as §1
LK35.2 cells were pulsed with the HEL protein in the same manner as in the item (2) in Example 1B, except that the HEL protein was added instead of the HEL protein, the HEL peptide 41-70, and the HEL peptide 48-61. The cultured LK35.2 cells were collected from the wells. Thereafter, the collected LK35.2 cells were used in inhibition of TCR recognition by an antibody to be described below.
Flow cytometry analysis was performed in the same manner as in the item (3) in Example 1B, except that serums of the HEL peptide 41-70-immunized mice or serums of the HEL peptide 48-61-immunized mice were used in addition to the serums of the HEL protein-immunized mice and that the LK35.2 cells obtained in the item (1) in Example 2B were used instead of the LK35.2 cells obtained in the item (2) in Example 1B. As Control 1, the flow cytometry analysis was performed in the same manner, except that serums collected from non-immunized mice were used instead of the serums of the HEL protein-immunized mice, the serums of the HEL peptide 41-70-immunized mice, and the serums of the HEL peptide 48-61-immunized mice. As Control 2, the flow cytometry analysis was performed in the same manner, except that the HEL protein was not added.
30 nmol of the HEL peptide 48-77 (Y53A L56A) was mixed with a complete Freund's adjuvant, and the resultant mixture was administered subcutaneously to mice (B10.A strain). Two weeks after the administration, whole blood was collected from each mouse, and serum was collected from the whole blood.
Flow cytometry analysis was performed in the same manner as in the item (3) in Example 1B, except that serums of the HEL peptide 48-77 (Y53A L56A)-immunized mice were used in addition to the serums of the HEL protein-immunized mice and that the LK35.2 cells obtained in the item (2) in Example 4 were used instead of the LK35.2 cells obtained in the item (2) in Example 1B. As controls, the flow cytometry analysis was performed in the same manner, except that serums collected from non-immunized mice were used instead of the serums of the HEL protein-immunized mice and the serums of the HEL peptide 48-77 (Y53A L56A)-immunized mice.

| binding of soluble single-chain TCR to LK35.2 cells pulsed with the antigen [1] | IgG1 binding of serum of peptide-immunized mice to LK35.2 cells pulsed with HEL peptide 41-70 [2] | IgG1 binding of serum of peptide-immunized mice to LK35.2 cells pulsed with HEL peptide 48-61 [2] | binding of soluble single-chain TCR to LK35.2 cells pulsed with HEL protein after reaction with serums of mice immunized with the substance [3] | Sequence |
| --- | --- | --- | --- | --- |
| observed | not observed | not observed | observed | DGSTDYGILQINSR (Gallus gallus domesticus) [HEL peptide 48-61, reference compound] |
| not observed | observed | not observed | not observed | QATNRNTDGSTDYGILQINSRWWCNDGRTP (Gallus gallus domesticus) [HEL peptide 41-70] |
